# B1: YB2/0-CNTO 860 A330I (antibody, IgG1)
# heavy: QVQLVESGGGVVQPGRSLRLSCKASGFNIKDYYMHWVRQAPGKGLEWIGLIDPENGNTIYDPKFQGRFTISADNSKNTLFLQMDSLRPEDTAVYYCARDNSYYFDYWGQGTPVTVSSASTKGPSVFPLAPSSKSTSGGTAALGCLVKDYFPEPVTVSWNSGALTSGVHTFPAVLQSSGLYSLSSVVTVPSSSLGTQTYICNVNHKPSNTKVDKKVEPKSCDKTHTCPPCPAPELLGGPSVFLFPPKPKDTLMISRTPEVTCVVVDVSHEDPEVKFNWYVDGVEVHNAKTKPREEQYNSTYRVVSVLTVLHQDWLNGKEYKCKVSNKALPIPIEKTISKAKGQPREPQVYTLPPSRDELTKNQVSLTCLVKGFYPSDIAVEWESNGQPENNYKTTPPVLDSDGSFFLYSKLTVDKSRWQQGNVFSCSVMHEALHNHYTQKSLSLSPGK
# light: DIQMTQSPSSLSASVGDRVTITCKASQDIRKYLNWYQQKPGKAPKLLIYYATSLADGVPSRFSGSGSGTDYTFTISSLQPEDIATYYCLQHGESPYTFGQGTKLEITRTVAAPSVFIFPPSDEQLKSGTASVVCLLNNFYPREAKVQWKVDNALQSGNSQESVTEQDSKDSTYSLSSTLTLSKADYEKHKVYACEVTHQGLSSPVTKSFNRGEC
# modifications: N-linked glycan at heavy chain Asn297 (YB2/0-type, low fucose); not carried by the letters
# notes: IgG1/kappa Fc variant; stably expressed in YB2/0 cells (p4177/p2402); EU numbering; also called A330I (YB2/0 cell-derived); A330I mutant expressed in YB2/0 cells; copies: 2 + 2
# Tests used:
# [1] = biological target: T1, recombinant human FcγRIIb (R&D Systems #1875-CD-050) (human, UniProt P31994 46-217, limits assumed); experiment: AlphaScreen
# T1 construct: Bought; also called CD32b; recombinant, soluble, human FcγRIIb
# T1 sequence (looked up): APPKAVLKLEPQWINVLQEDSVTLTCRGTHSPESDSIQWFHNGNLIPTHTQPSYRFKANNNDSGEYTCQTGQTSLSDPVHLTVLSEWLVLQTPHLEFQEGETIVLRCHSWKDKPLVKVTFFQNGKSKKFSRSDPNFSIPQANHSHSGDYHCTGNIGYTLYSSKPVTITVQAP
# Procedure: (§1) FcγRIIa (CD32a) AlphaScreen—Nickel acceptor beads (Perkin Elmer #6760619C) were diluted 1:50 in assay buffer (PBS, pH 7.4, 4 mg/ml BSA, 0.01% Tween-20), and 27.5 μl were added to each well of a Nunc V-bottom polypropylene plate (VWR # 62409-108) (Powers G., Notebook 9006, pp. 169-175, 182-185). A 2.0 μg/ml solution of recombinant human His-tagged FcγRIIa (R&D Systems #1330-CD-050) was prepared in assay buffer and 27.5 μl added to each well of a separate Nunc V bottom polypropylene plate. Titrations of test Abs were prepared in the Nunc V bottom polypropylene plate starting at 30 μg/ml. A 2 μg/ml solution of biotinylated goat F(ab′)₂ anti-human IgG F(ab′)₂ (Jackson Immunoresearch #109-066-097) was prepared in assay buffer and 27.5 μl added to each well of another Nunc V bottom polypropylene plate. A 1:50 dilution of streptavidin donor beads (PerkinElmer # 6760002) was prepared in assay buffer and 27.5 μl added to each well of another Nunc V bottom polypropylene plate. A volume of 5 μl of each reagent was added to the corresponding quadrants of a low-volume, non-binding white 384-well plate (Corning # 3673) in the following order: acceptor beads, FcγRIIa, test Ab, biotinylated anti-human IgG F(ab′)₂, and streptavidin donor beads. The plates were incubated for 30 minutes with shaking and the O.D.s determined using an Envision plate reader.
# (§2) FcγRIIb (CD32b) AlphaScreen—The assay was performed as described above for FcγRIIa except that FcγRIIa was replaced with FcγRIIb (R&D Systems #1875-CD-050).
# [2] = biological target: T2, recombinant human His-tagged FcγRIIa (R&D Systems #1330-CD-050) (human, UniProt P12318 36-218, limits assumed); experiment: AlphaScreen
# T2 construct: Bought; also called CD32a; recombinant, soluble, human FcγRIIa
# T2 sequence (looked up): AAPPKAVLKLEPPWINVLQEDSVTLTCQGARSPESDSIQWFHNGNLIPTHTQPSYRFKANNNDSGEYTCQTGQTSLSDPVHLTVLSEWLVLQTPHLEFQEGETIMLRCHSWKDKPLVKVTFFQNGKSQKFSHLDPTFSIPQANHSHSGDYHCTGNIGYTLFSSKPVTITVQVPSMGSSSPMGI
# Procedure: as §1, §2
# [3] = biological target: T3, recombinant human His-tagged FcγRI (extracellular domain, R&D Systems #1257-FC-050) (human, UniProt P12314 16-292); experiment: ELISA
# T3 construct: extracellular domain; Bought; also called CD64; recombinant, soluble, human FcγRI
# Procedure: FcγRI (CD64) ELISA —50 μl of a 1 μg/ml solution of recombinant human His-tagged FcγRI (extracellular domain, R&D Systems #1257-FC-050) in ELISA buffer (PBS, pH 7.4, 4 mg/ml BSA, 0.01% Tween-20) was added to each well of HisGrab 96 well plates (Pierce #15142) (Powers G., Notebook 9006, pp. 166-168, 180-181). The plate was incubated with shaking for 3 hours. The plates were washed 3× with 300 μl of wash buffer (PBS, 0.01% Tween-20) on a plate washer. Serial dilutions of the CNTO860 antibody Fc-variant samples were made in ELISA buffer and 50 μl per well of each titration were added in duplicate to the FcγRI-coated plates. The plates were incubated with shaking for 1 hour. The plates were washed 3× with 300 μl of wash buffer on a plate washer. 50 μl of a 1:10,000 dilution of HRP-labeled goat F(ab′)₂ anti-human IgG F(ab′)₂ (Jackson Immunoresearch # 109-036-097) in ELISA buffer was added to each well. The plates were incubated with shaking for 30 minutes. The plates were washed 3× with 300 μl of wash buffer on the plate washer. 50 μl per well TMB substrate (RDI #RDI-TMBSU-1L) was added to each well and developed for 5 minutes. The reaction was stopped by adding 100 μl 0.2 N sulfuric acid. The plates were read at OD450 on an Envision plate reader.
# FcγRIIIa (CD16a) ELISA—A human FcγRIIIa binding assay was done in ELISA format similar to the assay for FcγRI above. 50 μl of a 2 μg/ml solution of recombinant human His-tagged FcγRIIIa (extracellular domain made at Centocor) in ELISA buffer (PBS, 4 mg/ml BSA, 0.01% Tween-20) was added to each well of HisGrab 96 well plates (Pierce #15142) (Powers G., Notebook 10378, 19-23). The plate was incubated for 3 hours at room temp. The plates were blocked with 200 μl of Starting Block (Pierce #15142) for 30 min, and then washed 3× with 300 μl of wash buffer (PBS, 0.01% Tween-20) on a plate washer. Serial dilutions of the CNTO 860 test samples were made in Starting Block buffer and 50 μl per well of each titration were added in duplicate to the FcγRIIIa-coated plates. The plates were incubated for 1 hour. The plates were washed 3× with 300 μl of wash buffer on a plate washer. 50 μl of a 1:10,000 dilution of HRP-labeled goat F(ab′)2 anti-human IgG F(ab′)2 (Jackson Immunoresearch # 109-036-097) in Starting Block buffer was added to each well. The plates were incubated for 30 minutes.
# T3 sequence (P12314 16-292): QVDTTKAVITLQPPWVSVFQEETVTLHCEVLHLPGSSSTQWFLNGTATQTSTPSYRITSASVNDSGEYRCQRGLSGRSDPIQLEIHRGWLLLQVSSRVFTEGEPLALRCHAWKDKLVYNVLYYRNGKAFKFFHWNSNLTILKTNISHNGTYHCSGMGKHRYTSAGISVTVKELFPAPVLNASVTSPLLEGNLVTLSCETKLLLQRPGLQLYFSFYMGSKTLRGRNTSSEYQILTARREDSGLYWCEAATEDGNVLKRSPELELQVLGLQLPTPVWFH
binder,measurement,setting,value
B1,fold reduced binding,[1],500 fold
same,fold reduced binding,[2],8 fold
same,fold reduced binding,[3],< 2 fold

# Reference: patent US20080311034A1 (published 2008)
